Columns and labels:
[1] = biological target: T1, human IL11RA (analyte in the Biacore assay) (human, UniProt Q14626 23-370, limits assumed); test: SPR (Biacore T200): X209 captured on an anti-mouse capture chip, human IL11RA injected as analyte at 1.56 nM to 100 nM, 1:1 Langmuir fit
T1 construct: also called IL-11Rα
T1 sequence: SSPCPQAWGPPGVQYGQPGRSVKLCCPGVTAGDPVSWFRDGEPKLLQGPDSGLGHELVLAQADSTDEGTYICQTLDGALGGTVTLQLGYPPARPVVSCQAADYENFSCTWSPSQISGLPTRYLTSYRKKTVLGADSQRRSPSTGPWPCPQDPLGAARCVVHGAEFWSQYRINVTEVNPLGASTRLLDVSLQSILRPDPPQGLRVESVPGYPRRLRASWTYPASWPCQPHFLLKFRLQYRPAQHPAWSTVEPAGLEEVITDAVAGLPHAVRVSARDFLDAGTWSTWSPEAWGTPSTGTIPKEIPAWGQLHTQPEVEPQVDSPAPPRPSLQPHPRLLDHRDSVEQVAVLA
Experimental: (§1) Binding of X209 to human IL11RA was measured on Biacore T200 (GE Healthcare). X209 was immobilized onto an anti-mouse capture chip. Interaction assays were performed with HEPES-buffered saline pH 7.4 containing 0.005% P20 and 0.5% BSA. A concentration range (1.56 nM to 100 nM) of the analyte (human IL11 RA) was injected over X209 and reference surfaces at a flow rate of 40 μl min⁻¹. Binding to mouse 1111ra1 was confirmed on Octet system (ForteBio) using a similar strategy. All sensograms were aligned and double-referenced⁴. Affinity and kinetic constants were determined by fitting the corrected sensorgrams with 1:1 Langmuir model. The equilibrium binding constant KD was determined by the ratio of kd/kₐ.

[2] = biological target: T1, human IL11RA (analyte in the Biacore …); test: SPR, Biacore T200; X209 captured on an anti-mouse chip, human IL11RA as analyte (1.56 nM to 100 nM), 1:1 Langmuir fit
Experimental: as §1

mouse IL-11Rα (Il11ra1) = biological target: T2, mouse IL-11Rα (Il11ra1) (mouse, UniProt Q64385 24-372, limits assumed); test: BLI, Octet (ForteBio)
T2 construct: also called mouse Il11ra1
T2 sequence (looked up): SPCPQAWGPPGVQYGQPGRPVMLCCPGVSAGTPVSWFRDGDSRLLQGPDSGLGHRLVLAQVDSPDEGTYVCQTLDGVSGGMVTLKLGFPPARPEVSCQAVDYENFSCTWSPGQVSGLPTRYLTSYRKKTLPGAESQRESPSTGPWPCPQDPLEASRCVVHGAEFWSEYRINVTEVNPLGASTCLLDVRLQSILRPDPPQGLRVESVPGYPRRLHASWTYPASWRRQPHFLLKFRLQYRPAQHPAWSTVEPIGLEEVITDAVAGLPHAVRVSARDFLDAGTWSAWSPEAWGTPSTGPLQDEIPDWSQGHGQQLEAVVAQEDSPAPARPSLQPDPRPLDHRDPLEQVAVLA

B1: mouse anti-mouse IL-11Rα IgG X209 (antibody, V domains shown)
VH: QVQLQQPGAELVRPGSSVKLSCKASGYTFTNYWMHWLKQRPVQGLEWIGNIGPSDSKTHYNQKFKDKATLTVDKSSSTAYMQLNSLTSEDSAVYYCARGDYVLFTYWGQGTLVTVSA
VL: DIVLTQSPATLSLSPGERATLSCRASQSISNNLHWYQQKSHEAPRLLIKYASQSISGIPARFSGSGSGTDFTLSFSSLETEDFAVYFCQQSYSWPLTFGQGTKLEIK
notes: also called Enx209; neutralizing anti-IL11RA
Work on B1 yielded a Kd [1] of 6.01 nM, a koff [1] of 0.000757 s⁻¹ and a kon [1] of 126000 M⁻¹ s⁻¹. For the same binder, the Kd [2] was 6 nM and the binding result (mouse IL-11Rα (Il11ra1)) was “binds”.

Reference: US20200384083A1 (SINGAPORE HEALTH SERVICES PTE, published 2020)
